Test results as given in patent US20260167699A1 (Chugai, published 2026).

B1: GpH7-A5/GpH7-B3 variant L235_05P/GpL16-k0 (antibody, human IgG1, kappa)
heavy 1: not shown
heavy 2: not shown
light: DIVMTQSPLSLPVTPGEPASISCQASESLVHSNRNTYLHWYLQKPGQSPQLLIYKVSNRFSGVPDRFSGSGSGTDFTLKISRVEAEDVGVYYCSQNTHVPPTFGQGTKVEIERTVAAPSVFIFPPSDEQLKSGTASVVCLLNNFYPREAKVQWKVDNALQSGNSQESVTEQDSKDSTYSLSSTLTLSKADYEKHKVYACEVTHQGLSSPVTKSFNRGEC
notes: copies: 1 + 1 + 2
B2: GpH7-A5/GpH7-B3 variant L328_10E/GpL16-k0 (antibody, human IgG1, kappa)
heavy 1: not shown
heavy 2: not shown
light: B1 light
notes: copies: 1 + 1 + 2
B3: GpH7-A5/GpH7-B3 variant P271_14T/GpL16-k0 (antibody, human IgG1, kappa)
heavy 1: not shown
heavy 2: not shown
light: B1 light
notes: copies: 1 + 1 + 2
B4: GpH7-A5/GpH7-B3 variant P271_09D/GpL16-k0 (antibody, human IgG1, kappa)
heavy 1: not shown
heavy 2: not shown
light: B1 light
notes: copies: 1 + 1 + 2
B5: GpH7-A5/GpH7-B3 variant L328_14T/GpL16-k0 (antibody, human IgG1, kappa)
heavy 1: not shown
heavy 2: not shown
light: B1 light
notes: copies: 1 + 1 + 2
B6: GpH7-A5/GpH7-B3 variant P271_07I/GpL16-k0 (antibody, human IgG1, kappa)
heavy 1: not shown
heavy 2: not shown
light: B1 light
notes: copies: 1 + 1 + 2
B7: GpH7-A5/GpH7-B3 variant P238_08L/GpL16-k0 (antibody, human IgG1, kappa)
heavy 1: not shown
heavy 2: not shown
light: B1 light
notes: copies: 1 + 1 + 2
B8: GpH7-A5/GpH7-B3 variant L328_15Y/GpL16-k0 (antibody, human IgG1, kappa)
heavy 1: not shown
heavy 2: not shown
light: B1 light
notes: copies: 1 + 1 + 2
B9: GpH7-A5/GpH7-B3 variant L328_18N/GpL16-k0 (antibody, human IgG1, kappa)
heavy 1: not shown
heavy 2: not shown
light: B1 light
notes: copies: 1 + 1 + 2
B10: GpH7-A5/GpH7-B3 variant P271_20W/GpL16-k0 (antibody, human IgG1, kappa)
heavy 1: not shown
heavy 2: not shown
light: B1 light
notes: copies: 1 + 1 + 2
B11: GpH7-A5/GpH7-B3 variant L235_06M/GpL16-k0 (antibody, human IgG1, kappa)
heavy 1: not shown
heavy 2: not shown
light: B1 light
notes: copies: 1 + 1 + 2
B12: GpH7-A5/GpH7-B3 variant L235_04F/GpL16-k0 (antibody, human IgG1, kappa)
heavy 1: not shown
heavy 2: not shown
light: B1 light
notes: copies: 1 + 1 + 2
B13: GpH7-A5/GpH7-B3 variant N325_09D/GpL16-k0 (antibody, human IgG1, kappa)
heavy 1: not shown
heavy 2: not shown
light: B1 light
notes: copies: 1 + 1 + 2
B14: GpH7-A5/GpH7-B3 variant P329_10E/GpL16-k0 (antibody, human IgG1, kappa)
heavy 1: not shown
heavy 2: not shown
light: B1 light
notes: copies: 1 + 1 + 2
B15: GpH7-A5/GpH7-B3 variant N325_16H/GpL16-k0 (antibody, human IgG1, kappa)
heavy 1: not shown
heavy 2: not shown
light: B1 light
notes: copies: 1 + 1 + 2
B16: GpH7-A5/GpH7-B3 variant L235_20W/GpL16-k0 (antibody, human IgG1, kappa)
heavy 1: not shown
heavy 2: not shown
light: B1 light
notes: copies: 1 + 1 + 2
B17: GpH7-A5/GpH7-B3 variant P331_02A/GpL16-k0 (antibody, human IgG1, kappa)
heavy 1: not shown
heavy 2: not shown
light: B1 light
notes: copies: 1 + 1 + 2
B18: GpH7-A5/GpH7-B3 variant P331_03V/GpL16-k0 (antibody, human IgG1, kappa)
heavy 1: not shown
heavy 2: not shown
light: B1 light
notes: copies: 1 + 1 + 2
B19: GpH7-A5/GpH7-B3 variant P271_16H/GpL16-k0 (antibody, human IgG1, kappa)
heavy 1: not shown
heavy 2: not shown
light: B1 light
notes: copies: 1 + 1 + 2
B20: GpH7-A5/GpH7-B3 variant P331_07I/GpL16-k0 (antibody, human IgG1, kappa)
heavy 1: not shown
heavy 2: not shown
light: B1 light
notes: copies: 1 + 1 + 2
B21: GpH7-A5/GpH7-B3 variant L235_13S/GpL16-k0 (antibody, human IgG1, kappa)
heavy 1: not shown
heavy 2: not shown
light: B1 light
notes: copies: 1 + 1 + 2
B22: GpH7-A5/GpH7-B3 variant P271_03V/GpL16-k0 (antibody, human IgG1, kappa)
heavy 1: not shown
heavy 2: not shown
light: B1 light
notes: copies: 1 + 1 + 2
B23: GpH7-A5/GpH7-B3 variant P271_11K/GpL16-k0 (antibody, human IgG1, kappa)
heavy 1: not shown
heavy 2: not shown
light: B1 light
notes: copies: 1 + 1 + 2
B24: GpH7-A5/GpH7-B3 variant P271_19Q/GpL16-k0 (antibody, human IgG1, kappa)
heavy 1: not shown
heavy 2: not shown
light: B1 light
notes: copies: 1 + 1 + 2
B25: GpH7-A5/GpH7-B3 variant L235_14T/GpL16-k0 (antibody, human IgG1, kappa)
heavy 1: not shown
heavy 2: not shown
light: B1 light
notes: copies: 1 + 1 + 2
B26: GpH7-A5/GpH7-B3 variant L235_15Y/GpL16-k0 (antibody, human IgG1, kappa)
heavy 1: not shown
heavy 2: not shown
light: B1 light
notes: copies: 1 + 1 + 2
B27: GpH7-A5/GpH7-B3 variant L328_06M/GpL16-k0 (antibody, human IgG1, kappa)
heavy 1: not shown
heavy 2: not shown
light: B1 light
notes: copies: 1 + 1 + 2
B28: GpH7-A5/GpH7-B3 variant L328_19Q/GpL16-k0 (antibody, human IgG1, kappa)
heavy 1: not shown
heavy 2: not shown
light: B1 light
notes: copies: 1 + 1 + 2
B29: GpH7-A5/GpH7-B3 variant P331_06M/GpL16-k0 (antibody, human IgG1, kappa)
heavy 1: not shown
heavy 2: not shown
light: B1 light
notes: copies: 1 + 1 + 2
B30: GpH7-A5/GpH7-B3 variant P238_10E/GpL16-k0 (antibody, human IgG1, kappa)
heavy 1: not shown
heavy 2: not shown
light: B1 light
notes: copies: 1 + 1 + 2
B31: GpH7-A5/GpH7-B3 variant L235_19Q/GpL16-k0 (antibody, human IgG1, kappa)
heavy 1: not shown
heavy 2: not shown
light: B1 light
notes: copies: 1 + 1 + 2

The binders below were run against T1, FcγRIIIa (human, UniProt P08637 17-208) (assay: SPR (Biacore);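 further: antibody variants captured on an SPR sensor chip, with FcγRIIIa passed over as analyte in HBS-EP+ buffer at 25 °C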).
T1 construct: extracellular domain; also called 3a; FcγRIIIa extracellular domain
T1 sequence (P08637 other isoform, or with tags, fused parts or gaps): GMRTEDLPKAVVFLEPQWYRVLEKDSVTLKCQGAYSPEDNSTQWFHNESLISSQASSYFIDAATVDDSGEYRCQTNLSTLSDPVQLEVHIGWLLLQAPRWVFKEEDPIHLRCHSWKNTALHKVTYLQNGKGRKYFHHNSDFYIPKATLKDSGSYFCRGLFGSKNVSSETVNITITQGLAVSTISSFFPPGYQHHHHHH

Row | He/Con 3a | Binder
1 | 68.6 % of GpH7-A5/GpH7-B3/GpL16-k0 | B1
2 | 54.9 % of GpH7-A5/GpH7-B3/GpL16-k0 | B2
3 | 59.2 % of GpH7-A5/GpH7-B3/GpL16-k0 | B3
4 | 97.7 % of GpH7-A5/GpH7-B3/GpL16-k0 | B4
5 | 77.4 % of GpH7-A5/GpH7-B3/GpL16-k0 | B5
6 | 80.2 % of GpH7-A5/GpH7-B3/GpL16-k0 | B6
7 | 71.3 % of GpH7-A5/GpH7-B3/GpL16-k0 | B7
8 | 70.2 % of GpH7-A5/GpH7-B3/GpL16-k0 | B8
9 | 51.1 % of GpH7-A5/GpH7-B3/GpL16-k0 | B9
10 | 77.8 % of GpH7-A5/GpH7-B3/GpL16-k0 | B10
11 | 75.6 % of GpH7-A5/GpH7-B3/GpL16-k0 | B11
12 | 76.4 % of GpH7-A5/GpH7-B3/GpL16-k0 | B12
13 | 53 % of GpH7-A5/GpH7-B3/GpL16-k0 | B13
14 | 52.7 % of GpH7-A5/GpH7-B3/GpL16-k0 | B14
15 | 68 % of GpH7-A5/GpH7-B3/GpL16-k0 | B15
16 | 73.8 % of GpH7-A5/GpH7-B3/GpL16-k0 | B16

Row | He/Con 3a | Binder
17 | 82.5 % of GpH7-A5/GpH7-B3/GpL16-k0 | B17
18 | 66.9 % of GpH7-A5/GpH7-B3/GpL16-k0 | B18
19 | 70.3 % of GpH7-A5/GpH7-B3/GpL16-k0 | B19
20 | 60.4 % of GpH7-A5/GpH7-B3/GpL16-k0 | B20
21 | 67.2 % of GpH7-A5/GpH7-B3/GpL16-k0 | B21
22 | 73.5 % of GpH7-A5/GpH7-B3/GpL16-k0 | B22
23 | 92.5 % of GpH7-A5/GpH7-B3/GpL16-k0 | B23
24 | 84.6 % of GpH7-A5/GpH7-B3/GpL16-k0 | B24
25 | 73.2 % of GpH7-A5/GpH7-B3/GpL16-k0 | B25
26 | 77.8 % of GpH7-A5/GpH7-B3/GpL16-k0 | B26
27 | 80.8 % of GpH7-A5/GpH7-B3/GpL16-k0 | B27
28 | 83.4 % of GpH7-A5/GpH7-B3/GpL16-k0 | B28
29 | 68.4 % of GpH7-A5/GpH7-B3/GpL16-k0 | B29
30 | 98.9 % of GpH7-A5/GpH7-B3/GpL16-k0 | B30
31 | 68.1 % of GpH7-A5/GpH7-B3/GpL16-k0 | B31
